Data on one molecule can be found in publication PMC12507909, “The reticulocyte restriction: invasion ligand RBP1a of Plasmodium vivax targets human TfR1, prohibitin-2, and basigin” (Frontiers in Cellular and Infection Microbiology, 2025).

Broadly, the Kd is the constant that tells how readily two partners part at equilibrium.

For this test, the target named is T1, transferrin receptor protein 1 (TfR1), recombinant extracellular domain Cys89-Phe760 (human, UniProt P02786 89-760).
T1 construct: Human transferrin receptor protein 1 (TfR1/CD71), extracellular domain, Cys89-Phe760; also called CD71; the 89–760 domain of TfR1; source: bought: SinoBiological
Briefly: ELISA; Maxisorp plates coated with 5 μg/mL of each receptor candidate; serial dilutions of PvRBP1a_(158-650)LTID and LTID (48,000 pM to 187.5 pM and 4,000 pM to 1.28 pM) in blocking solution, 16 hours at 4°C; detected with a TurboID-specific antibody; one-site binding saturation model; triplicates. Particulars: both partners purified. A general note: In an ELISA, binding on a coated surface is turned into a signal by an enzyme label.

T1 sequence (P02786 89-760): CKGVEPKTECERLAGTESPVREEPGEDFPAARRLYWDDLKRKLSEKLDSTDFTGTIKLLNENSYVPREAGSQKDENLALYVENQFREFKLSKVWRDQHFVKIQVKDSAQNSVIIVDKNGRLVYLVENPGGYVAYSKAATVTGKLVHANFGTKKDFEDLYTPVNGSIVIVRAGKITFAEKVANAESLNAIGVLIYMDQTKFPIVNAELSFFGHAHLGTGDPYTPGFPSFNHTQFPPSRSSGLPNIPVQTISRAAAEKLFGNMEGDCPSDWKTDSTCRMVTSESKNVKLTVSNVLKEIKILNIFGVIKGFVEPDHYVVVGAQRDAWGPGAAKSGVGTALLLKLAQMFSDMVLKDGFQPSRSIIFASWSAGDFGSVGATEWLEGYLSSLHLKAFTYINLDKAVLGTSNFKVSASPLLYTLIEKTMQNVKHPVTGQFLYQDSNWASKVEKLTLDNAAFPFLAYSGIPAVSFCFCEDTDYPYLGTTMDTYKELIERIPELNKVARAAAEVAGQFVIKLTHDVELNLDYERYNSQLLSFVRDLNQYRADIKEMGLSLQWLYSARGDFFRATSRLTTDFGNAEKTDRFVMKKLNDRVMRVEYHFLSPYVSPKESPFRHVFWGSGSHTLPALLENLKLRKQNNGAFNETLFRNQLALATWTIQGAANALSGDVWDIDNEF

B1: PvRBP1a_(158-650)LTID fusion protein (domain or fragment)
chain: YNSIVDMSEKLKENDKYNLVFDMEIDFVDLQFFNLILELIPKDSQYHTYYEETLKQQVTEYTNSLKTLMDSCISEKDQMIILEYEINYAKRKSIETETLGDKETKLSAVSQAYAKHLESYKGVLKPKLNDIKNNAFSVLKDSYCKDNCGEYVQKYNTMRKNFISSSDQYKMEAYMYIPKSINDYTVLDKILSESNELGIDIQETVNSLKLLGEEISEVSHLYVINSTLIDDAAKKLESINEEDESAEIDLQKFEDNSKALANNYCIFQYIKTLNEPIKKAYESKVIKSNELLSTIIDTLGKSATALQESTFNQEECNKIKTEAEKVKDDAEDIYEKNEQIYYEIPESEDETIADKINDLQYLIDQMNEYKDEIVNNSEFISNRYKNIYENLKETYETELNDIGQLENDTSKVNFYLMQIRKINTEKTKIDESLQTVEKFYKGILDLKEKIYELKIEFEKSVTEINRLQDGESARDLHEEQIKEILDKMAKKVH
notes: Synthetic gene optimised for E. coli, in pET-28a(+) between NcoI and XhoI; About 94 kDa; Details of expression and purification are in the Supplementary Data; also called PvRBP1a (158–650)-TurboID; PvRBP1a_(158-650)LITD
In the case of B1, the Kd was 1.15 nM.
